Experimental data taken from patent US20110171205A1.

Molecular target: hSlo, human pore-forming α-subunit of the high conductance calcium-activated potassium channel (maxi-K) (human) (UniProt Q12791)
Experiment: cell-based or functional assay

Chain of UniProt Q12791 (Q12791 whole entry): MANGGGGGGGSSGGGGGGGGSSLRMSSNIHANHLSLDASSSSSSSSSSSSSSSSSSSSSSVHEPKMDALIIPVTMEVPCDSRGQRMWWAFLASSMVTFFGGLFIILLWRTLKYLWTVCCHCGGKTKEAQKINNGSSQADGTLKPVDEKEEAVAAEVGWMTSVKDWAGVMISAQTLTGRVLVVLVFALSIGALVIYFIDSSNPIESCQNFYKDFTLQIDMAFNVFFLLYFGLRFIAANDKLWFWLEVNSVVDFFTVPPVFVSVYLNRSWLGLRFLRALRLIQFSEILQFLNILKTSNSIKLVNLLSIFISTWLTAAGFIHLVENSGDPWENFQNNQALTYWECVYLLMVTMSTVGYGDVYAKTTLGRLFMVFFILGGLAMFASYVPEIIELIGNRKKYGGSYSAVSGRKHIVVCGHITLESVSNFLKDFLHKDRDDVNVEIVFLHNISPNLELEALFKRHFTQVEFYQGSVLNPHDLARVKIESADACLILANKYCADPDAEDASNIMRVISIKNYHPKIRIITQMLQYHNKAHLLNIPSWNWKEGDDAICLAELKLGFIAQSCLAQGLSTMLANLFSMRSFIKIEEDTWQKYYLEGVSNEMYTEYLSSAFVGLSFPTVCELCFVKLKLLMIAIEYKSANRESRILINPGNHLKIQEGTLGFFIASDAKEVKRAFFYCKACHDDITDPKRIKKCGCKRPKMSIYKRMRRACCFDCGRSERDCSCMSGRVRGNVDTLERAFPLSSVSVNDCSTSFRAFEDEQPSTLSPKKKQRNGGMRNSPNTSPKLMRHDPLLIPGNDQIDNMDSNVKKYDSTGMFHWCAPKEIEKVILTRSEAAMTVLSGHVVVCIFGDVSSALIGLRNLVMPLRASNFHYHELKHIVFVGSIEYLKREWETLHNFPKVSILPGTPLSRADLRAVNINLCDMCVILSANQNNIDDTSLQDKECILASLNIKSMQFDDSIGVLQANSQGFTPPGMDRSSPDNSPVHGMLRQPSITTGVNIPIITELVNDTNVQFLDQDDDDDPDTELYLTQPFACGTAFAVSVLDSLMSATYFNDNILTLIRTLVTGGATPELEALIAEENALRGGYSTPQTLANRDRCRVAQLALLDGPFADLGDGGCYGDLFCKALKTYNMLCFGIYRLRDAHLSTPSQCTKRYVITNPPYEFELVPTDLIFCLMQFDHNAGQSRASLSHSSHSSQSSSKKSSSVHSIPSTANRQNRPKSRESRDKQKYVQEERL

Substance	block of hSlo current (whole cell patch) at 300 nM toxin [%]
iberiotoxin (from UniProt P24663 1-37) (peptide)	> 90
charybdotoxin (from UniProt P13487 23-59) (peptide)	> 90
